# According to US20110159009A1:
# Biological target: mouse VEGF-A (mouse) (UniProt Q00731)
# Assay: cell-based or functional assay
# Sequence of mouse VEGF-A (mouse) (Q00731 other isoform, or with tags, fused parts or gaps limits assumed): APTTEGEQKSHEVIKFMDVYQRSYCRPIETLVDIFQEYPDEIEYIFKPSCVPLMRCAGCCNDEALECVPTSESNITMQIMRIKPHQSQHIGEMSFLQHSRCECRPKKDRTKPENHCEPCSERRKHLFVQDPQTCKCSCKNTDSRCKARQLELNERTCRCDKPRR
substance,measurement,value
Bevacizumab (BV) (antibody),BRME proliferation (Alamar blue),> 1500 nM
